Like-named read-outs stand apart in the source and are kept apart here.

Experimental findings from US20240383984A1 (Genentech, published 2024) are described below.

The target in assay [1] is T1, human FcRH5 protein fragment (soluble) (human, UniProt Q96RD9 16-851).
T1 construct: whole entry named; also called soluble human FcRH5; Human FcRH5 (BIACORE analyte)
T1 sequence: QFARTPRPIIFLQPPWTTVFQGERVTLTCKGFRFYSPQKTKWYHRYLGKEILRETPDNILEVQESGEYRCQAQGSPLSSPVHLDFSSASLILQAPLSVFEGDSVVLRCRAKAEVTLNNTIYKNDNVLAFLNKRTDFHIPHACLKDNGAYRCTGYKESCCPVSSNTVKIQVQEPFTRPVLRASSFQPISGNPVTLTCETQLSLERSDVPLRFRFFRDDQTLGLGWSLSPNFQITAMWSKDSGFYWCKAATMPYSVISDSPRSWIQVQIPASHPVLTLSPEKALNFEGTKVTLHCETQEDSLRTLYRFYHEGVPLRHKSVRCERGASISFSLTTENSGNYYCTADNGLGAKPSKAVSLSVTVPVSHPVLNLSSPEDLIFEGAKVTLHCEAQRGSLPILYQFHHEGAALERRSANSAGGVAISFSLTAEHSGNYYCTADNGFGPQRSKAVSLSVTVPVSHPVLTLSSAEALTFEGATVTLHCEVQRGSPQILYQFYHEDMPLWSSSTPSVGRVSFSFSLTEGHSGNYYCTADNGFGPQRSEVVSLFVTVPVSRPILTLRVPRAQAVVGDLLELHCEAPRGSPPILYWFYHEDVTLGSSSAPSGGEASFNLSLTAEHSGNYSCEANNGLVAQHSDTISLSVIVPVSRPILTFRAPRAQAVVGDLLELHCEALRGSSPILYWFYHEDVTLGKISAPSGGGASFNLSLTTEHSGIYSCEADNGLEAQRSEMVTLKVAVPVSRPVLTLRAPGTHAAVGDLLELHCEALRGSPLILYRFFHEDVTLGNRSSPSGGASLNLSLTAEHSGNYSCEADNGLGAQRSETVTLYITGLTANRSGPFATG
The assay can be described thus: SPR (BIACORE), TDB captured as ligand, Hu FcRH5 as analyte, 25 °C, 1:1 binding model. (Surface plasmon resonance follows binding to a sensor surface in real time, without labels.)

For assay [2], the target named is T1, human FcRH5 protein fragment (soluble). Described as above. The source holds these as a separate data set.
The target of assay [3] is T2, human FcRH3 (BIACORE analyte) (human, UniProt Q96P31 18-573, limits assumed).
T2 construct: also called huFcRH3
T2 sequence (looked up): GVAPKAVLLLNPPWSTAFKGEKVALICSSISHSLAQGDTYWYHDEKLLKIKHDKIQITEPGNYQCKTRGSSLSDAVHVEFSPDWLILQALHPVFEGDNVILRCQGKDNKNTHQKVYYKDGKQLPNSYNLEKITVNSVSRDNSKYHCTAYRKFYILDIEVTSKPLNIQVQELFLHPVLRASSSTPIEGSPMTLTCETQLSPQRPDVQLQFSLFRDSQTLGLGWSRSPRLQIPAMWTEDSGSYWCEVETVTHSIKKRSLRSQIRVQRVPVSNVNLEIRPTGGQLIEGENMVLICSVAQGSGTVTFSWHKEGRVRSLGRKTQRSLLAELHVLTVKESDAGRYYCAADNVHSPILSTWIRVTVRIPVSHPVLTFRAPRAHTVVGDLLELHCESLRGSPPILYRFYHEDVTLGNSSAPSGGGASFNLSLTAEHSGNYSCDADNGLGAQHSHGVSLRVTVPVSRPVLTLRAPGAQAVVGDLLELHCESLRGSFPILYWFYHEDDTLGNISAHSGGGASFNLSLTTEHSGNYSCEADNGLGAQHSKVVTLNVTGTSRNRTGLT
The assay can be described thus: SPR (BIACORE), TDB captured as ligand, FcRH3 as analyte, 25 °C, 1:1 binding model.

The target in assay [4] is T3, cynomolgus E11 domain protein (cynomolgus monkey).
T3 construct: whole entry named; also called cyno E11
T3 chain: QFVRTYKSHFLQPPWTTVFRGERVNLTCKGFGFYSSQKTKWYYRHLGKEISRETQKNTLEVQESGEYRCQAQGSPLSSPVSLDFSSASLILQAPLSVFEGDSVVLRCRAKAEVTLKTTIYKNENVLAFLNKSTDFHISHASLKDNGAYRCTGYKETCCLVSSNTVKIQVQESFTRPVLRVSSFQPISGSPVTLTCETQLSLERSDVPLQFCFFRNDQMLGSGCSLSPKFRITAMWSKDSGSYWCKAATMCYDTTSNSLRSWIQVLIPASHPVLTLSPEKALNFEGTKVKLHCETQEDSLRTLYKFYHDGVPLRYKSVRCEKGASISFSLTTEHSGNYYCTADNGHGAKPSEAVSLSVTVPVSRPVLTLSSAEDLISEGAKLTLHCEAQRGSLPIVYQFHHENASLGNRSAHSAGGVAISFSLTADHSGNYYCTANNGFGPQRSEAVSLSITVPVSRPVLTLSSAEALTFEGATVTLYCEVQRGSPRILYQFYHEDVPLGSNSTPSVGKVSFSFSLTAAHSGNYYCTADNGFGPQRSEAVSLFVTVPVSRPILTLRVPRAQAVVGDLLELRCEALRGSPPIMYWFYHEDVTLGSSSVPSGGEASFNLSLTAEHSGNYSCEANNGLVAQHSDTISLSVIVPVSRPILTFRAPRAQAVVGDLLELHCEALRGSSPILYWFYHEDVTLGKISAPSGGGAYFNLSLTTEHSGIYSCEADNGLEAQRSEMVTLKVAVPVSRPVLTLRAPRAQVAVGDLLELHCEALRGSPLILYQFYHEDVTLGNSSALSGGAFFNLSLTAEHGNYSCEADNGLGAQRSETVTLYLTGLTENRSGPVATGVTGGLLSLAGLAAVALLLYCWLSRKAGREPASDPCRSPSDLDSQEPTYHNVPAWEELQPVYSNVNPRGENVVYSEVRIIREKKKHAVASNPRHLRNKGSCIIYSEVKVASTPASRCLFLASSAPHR
The assay can be described thus: SPR, IgG capture. As for the experimental part: Briefly, test antibodies were captured on flow cells 2, 3 or 4 with flow cell 1 as a reference on a protein A Series S CM5 chip (GE Life Sciences, Piscataway, NJ). An FcRH5 protein fragment was used as analyte, with a flow rate of 30 μl/minute. Between injections the capture surface was regenerated by a 30 second injection of 10 mM glycine, pH 1.5 at a flow rate of 10 μl/minute. Interactions were assessed at 25° C. in 10 mM HEPES pH 7.4, 150 mM NaCl, 0.05% Tween 20 (HBSP). Reference data from the reference flow cell and from injection of buffer alone was subtracted prior to kinetic analysis. Kinetic information was calculated by fitting data to a 1:1 binding model. Reference subtraction and data fitting were performed using BIAevaluation software (GE Life Sciences, Piscataway, NJ).

B1: hu1G7.v1.4/38E4.v1 TDB (bispecific antibody, V domains shown)
VH 1: EVQLVESGPGLVKPSETLSLTCTVSGFSLTRFGVHWVRQPPGKGLEWLGVIWRGGSTDYNAAFMSRLTISKDNSKNQVSLKLSSVTAADTAVYYCSNHYYGSSDYALDNWGQGTLVTVSS
VL 1: DIQMTQSPSSLSASVGDRVTITCKASQDVRNLVVWFQQKPGKAPKLLIYSGSYRYSGVPSRFSGSGSGTDFTLTISSLQPEDFATYYCQQHYSPPYTFGQGTKVEIK
VH 2: EVQLVQSGAEVKKPGASVKVSCKASGFTFTSYYIHWVRQAPGQGLEWIGWIYPENDNTKYNEKFKDRVTITADTSTSTAYLELSSLRSEDTAVYYCARDGYSRYYFDYWGQGTLVTVSS
VL 2: DIVMTQSPDSLAVSLGERATINCKSSQSLLNSRTRKNYLAWYQQKPGQSPKLLIYWTSTRKSGVPDRFSGSGSGTDFTLTISSLQAEDVAVYYCKQSFILRTFGQGTKVEIK
notes: knob-into-hole TDB; also called 1G7.v1.4 TDB; 1G7.v1.4 (TDB format)
B1: in assay [1], the affinity, expressed as Kd, was 2.41 nM; the koff (usually the rate constant with which the complex falls apart) stood at 0.00117 s⁻¹; the on-rate constant (kon) – broadly, a measure of how fast the partners come together – was 484000 M⁻¹ s⁻¹.

B2: 1G7.v85/38E4.v1 TDB (bispecific antibody, V domains shown)
VH 1: EVQLVESGPGLVKPSETLSLTCTVSGFSLTRFGVHWVRQPPGKGLEWLGVIWRGGSTDYNAAFVSRLTISKDNSKNQVSLKLSSVTAADTAVYYCSNHYYGSSDYALDNWGQGTLVTVSS
VL 1: DIQMTQSPSSLSASVGDRVTITCKASQDVRNLVVWFQQKPGKAPKLLIYSGSYRYSGVPSRFSGSGSGTDFTLTISSLQPEDFATYYCQQHYSPPYTFGQGTKVEIK
VH 2: EVQLVQSGAEVKKPGASVKVSCKASGFTFTSYYIHWVRQAPGQGLEWIGWIYPENDNTKYNEKFKDRVTITADTSTSTAYLELSSLRSEDTAVYYCARDGYSRYYFDYWGQGTLVTVSS
VL 2: DIVMTQSPDSLAVSLGERATINCKSSQSLLNSRTRKNYLAWYQQKPGQSPKLLIYWTSTRKSGVPDRFSGSGSGTDFTLTISSLQAEDVAVYYCKQSFILRTFGQGTKVEIK
notes: knob-into-hole TDB; also called 1G7.v85 TDB; 1G7.v85 (TDB format)
For B2, in assay [2], the Kd (usually a measure of binding affinity in units of concentration) amounted to 2.35 nM, the koff worked out at 0.00104 s⁻¹ and the kon is 441000 M⁻¹ s⁻¹. In assay [3], the Kd is 92.4 nM, the koff was found to be 0.00741 s⁻¹ and the kon is 80200 M⁻¹ s⁻¹.

B3: 15G8 (antibody, mouse IgG2a, V domains shown)
VH: EVQLQQSGPELVKPGASVKMSCKASGYTFTNYVIHWMKQKPGQGLEWIGYISPYNDYTKYNEKFEGKATLTSDKSSNTAYMELSSLTSEDSAVYYCARRDYYGSSDYWGQGTTLTVSS
VL: QIVLTQSPAIMSASPGEKVTMTCSASSSVDYMHWYQQKSGTSPKKWIYDTSKLASGVPARFSGSGSGTSYSLTIGSMEAEDAATYYCQQWSSNPPTFGGGTKLEIK
notes: mouse mAb, Campaign C; recombinant murine IgG2a for SPR; also called mAb 15G8
Turning to B3, in assay [4], the “KD difference between human and cynomolgus E11 domains” value was ~20 fold.
